In the nanobody polyreactivity screen of Harvey et al. (2022):

Test: yeast display, Sf9 membrane polyspecificity reagent, FACS + sequencing; frameworks hold sequencing errors
How it was run: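 Using colony PCR, genes from sorted yeast display clones were amplified, then sequenced on MiSeq at 2 × 250 and filtered by CDR length. The clones had been stained with 10% biotinylated, detergent-solubilized Sf9 membrane reagent for 1 hour at 4 °C and sorted by FACS into low and high (top ~1%) gates on anti-HA and streptavidin fluorescence. Polyreactivity labels come from the gate of origin.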

Sequence | polyreactivity (PSR sort gate)
QVQLVESGGRLVQAGGSLRLSCAASGIIFVSYMGWYIQAPGQERELVAAIRWSGGRTYYADSVKGRFTISRDNAKNTVYLQMTSLKPEDTAVYNCATAPYICAYSLPHHDSWGQGTQVTVSS | high polyreactivity
QVQLVESGGGLVQAGGSLRLSCAASGSIFYVNAMGWNRQPPGKERELVAGITSGGRTNYADSVKGRFTISRDNAKNSVYLQMNSLKPEDTAVYYCATEIRITGLYRYDYWGQGTQVTVSS | low polyreactivity
QVQLVESGGGLVQAGGSLRLSCAASGSTFRRYTMGWYRQAPGKERELVAAISSGGSTYYADSVKGRFTISLDNAKNTVYLQMNSLKPEDTAVYYCAAKNYPLTRYWRYDYSEYYYWGQGTQVTVSS | high polyreactivity
QVQLVESGGGLVQAGGSLRLSCAASGIIFIPYAMGWYRQAPGKERELVASISKRGGRTYYADSVKGRFTISRDNAKNTVYLQMNSLKPEDTAVYYCAAYARYPVVYGVDYWGQGTQVTVSS | high polyreactivity
QVQLVESGGVLVQAGGSLRLSCAASGRTFWYNAMGWYRQAPGKEWELVAAISSTGGRTYYADSVKGRFTISRDNAKTTVYLQMNSLKPEDTAVYYCAARQLSSHYDYWGQGTQVTVSS | low polyreactivity
QVQLVESGGGIVQAGGSLRLSCSASGFSFSSYAMGWYRQAPGKERELVASITWSGGRTYYADSVKGRFTISRDNAKNTVYLQMNSLKPEDTAVYYCAPGDVNWSYSLLYTVVLFDSWGQGTQVTVSS | high polyreactivity
QVQLVESGGGLVHARGSLRLSCAASGCTFVRNAMGWYRPAPGKERELGAAITSRGGSTYYADSVKGRFTISRDNAKNTVYLQMNSLKPEDTAVYYCAARFGVKRGQYDFWGQGTQVTVSS | high polyreactivity
QVQLVESGGGLVQAGGSLRLSCAASGSTFVNYVMGWYRPAPGKERELVAAISRRGTSTRYADSVKGRFTISRDNAKNTVYLQMNSLKPEDTAVYYCAATRYVGVTGYGYWGQGTQVTVSS | high polyreactivity
QVQLVESGVGLVQAGGSLRLSCAASGSTFWSYTMGWYRQAPGKERELVARIRTTGGSTYADSVKGRFTISRDNAKNTVYLQMNSLKPEDTAVYYCAKEGWLRYYPWYGGDYWGQGTQVTVSS | high polyreactivity
QVQLVESGGGLVQAGGSLRLSCAASGSISGYYAMGWYRQAPGKERELVASIRYTGARTYYADSVKGRFTISRDNAKNTVYLQMNSLKPEDTAVYYCNARVDWGWPGYEYDYWGQGTQVTVSS | low polyreactivity
QVQLVESGGGLVQAGRSLRLSCAASGRTFPYNAMGWYRQAPGKESELVAAITSGGTTNYADSVKGRFTISRDNAKSTVYLQFNRLKPEDTAVYYCAADSDASSQFRRDYWGQGSQVTVSS | low polyreactivity
QVQLVESGGGLVQAGGSLRLSCAASGFIFGAYSMGWYRQAPGKERELVADITQNSGSTYYADSVKGRFTISRDNAKNTVYLQMNSLKPEDTAVYYCNAPPGTFQWQGHSDYWGQGTQVTVSS | low polyreactivity
QVQLVESGGGFVQAGGSLRLSCAASGFTFRKYARGWYRQAPGNERELVAVINIVGSTYYADSVKGRFTISRDNAKNTVYLQMNSLKPEDTAVYYCAADWSYRLKYYWYGGFNYWGQGTQVTVSS | high polyreactivity
QVQLVESGGGLVQAGGSLRLSCAASGFIFRKYAMGWYRQAPGKERELVAAITASGGSTYYADSVKGRFTISRDNAKNTVYLQMNSLKPEDTAVYYCATDYHGAERWLKYDYWGQGTQVTVSS | high polyreactivity
QVQLVESGGGLVQAGGSLRLSCAASGSIFYWYAMGWYRQAPGKERELVAAISSSGSTNYADSVKGRFTISRDNAKNTVYLQMNSLKPEDTAVYYCAAYRTGYNGWGYGYWGQGTQVTVSS | high polyreactivity
QVQLVESGGGLVQAGGSLRLSCAASGIIFYKYAMGWKRQGPGKERELVAAITSGGRRTYYADSVKGRFTISRDNAKNTVYLLMNSLKPEDTEAFYCAARFSYPWLYLFVYWGQVTQVTVSS | high polyreactivity
QVQLGESGGSLVQAGASLRLSCAASAITFYGNAMGWYRQAPGKERELVAAIRRGGSTNYADSVKGRFTISRDNAKKTVYLQMNSLKPEDTAVYYCAADSYGYTFRNYRVGYWGHGTQVTVSS | high polyreactivity
QVQLVESGGGLVQAGGSLRLSCADSGSIFQRYAVGWYRQAPGKEREVVAAFTASGGSTYYADSVKGRFTISRDNAKNTVYLQMNILKPEDTAVYYCATDSYWRQDLYRYEYWGQGTQVTVSS | high polyreactivity
QVQLVESGGGLVQAGGSLRLSSAASGNNFHFYAMGSYRQAPGKERELVATISWRGDGTYYADSVKGRFTISRDNAKNTVYLQMNSLKPEDTAVYYCAGRGVWPEYDYWGQGTQVNVSS | low polyreactivity
QVQLVESGGGLVQAGGSLRLSCAASGFIFGYYAMGWYRQAPGKERELVAVISRGGGSTHYADSVKGRFTISRDNAKNTVYLQMNSLKPEDTAVYYCAAQLGRRSATYYYWGQGTQVTVSS | high polyreactivity
HVQLVESGGGLVHAGGSLRLSCAASGAIFWVNAMGWYREAPGKERELVADISRSGANTYYADSVKGRFTISRDNAKNTVYLQMTSLNPEDTAVYYCAKGVFYPWWYVQPEHDYWGQGTQVTVSS | high polyreactivity
QVQLVESGGGLDQAGGSLRLSCAASGSTFVANAMGWYRQAPGKERELVAAITYRGGSTYYADSVKGRFTISRDNAKNSVYLQMNSLKPEDTAVYYCNTVYYVASASYYWRYDYWGQGTQVTVSS | high polyreactivity
